# Results as given in patent US20260216362A1, “ANTI-BDCA2 ANTIBODY-DRUG CONJUGATE AND USE THEREOF” (DUALITY BIOLOGICS (SHANGHAI) CO., LTD., priority 2022, published 2026).
# Tests used:
# [1] = tested on: human peripheral blood mononuclear cells; assay: Inhibition of R848-induced TNF-α production from human peripheral blood mononuclear cells by BDCA2-ADC; assay type: cell-based; conditions: 5 μM R848, 24 h
# Description: The inhibitory effects of the antibody-drug conjugate molecules of the present application on the production from peripheral blood mononuclear cells were detected. Peripheral blood mononuclear cells produce a large number of cytokines after the stimulation of the TLR7/8 agonist R848. The peripheral blood mononuclear cells were treated in vitro with the BDCA2 antibody-drug conjugate at different concentrations, and IFNα and TNFα produced by the peripheral blood mononuclear cells were quantitatively detected after the stimulation of 5 μM R848 for a certain period of time. The in vitro activity of the ligand-drug conjugates was evaluated based on the extent of cytokine inhibition.
# The cryopreserved human peripheral blood mononuclear cells were thawed, resuspended in a complete culture medium and counted, and the cell suspension was adjusted to 2.5×10^6 cells/mL with the culture medium and cultured overnight. […] The supernatant was collected, and the TNF-α and IFN-α concentration levels in the supernatant were detected using an ELISA kit. Dose-response data were fitted to an S-shaped curve using non-linear regression, and IC50 values were calculated.
# TNF-α concentration assay was performed using a Dakewe TNF-α ELISA kit (Cat. No. 1117202). […] The reading at wavelength 450 nm was detected using an M2e instrument within 10 min after the termination. […]
# recombinant Human BDCA2 = molecular target: T1, recombinant Human BDCA2 (Homo sapiens, UniProt Q8WTT0); assay: Affinity assay of humanized antibodies by BIAcore (SPR); conditions: 1:1 binding model
# T1 construct: extracellular domain (Asn45-Ile213) of human BDCA2 (hBDCA2); human IgG1 Fc (fused via a linker) (N); made in house; host or cells: 293E
# T1 sequence (Q8WTT0 45-213): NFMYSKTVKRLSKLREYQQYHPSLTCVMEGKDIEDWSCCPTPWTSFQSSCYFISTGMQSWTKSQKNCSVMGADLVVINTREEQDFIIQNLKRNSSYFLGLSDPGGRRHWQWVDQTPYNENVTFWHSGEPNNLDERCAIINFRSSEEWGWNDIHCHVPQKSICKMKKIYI
# Description: The humanized antibodies of the present disclosure were assayed for affinity by the BIAcore experiment. The surface of a CM5 chip channel was activated with 50 mM NHS and 200 mM EDC (NHS and EDC from an amino coupling kit) mixed in a ratio of 1:1, and the anti-human IgG (Fc) antibody (diluted with a sodium acetate solution at pH 5.0, the concentration was 25 μg/mL) was injected for 420 s. Then 1 M ethanolamine was injected at a flow rate of 10 μL/min for 420 s to block excess active carboxyl groups on the chip. The humanized antibody was diluted to 1 μg/mL using a running buffer and injected into a detection channel flow cell at a flow rate of 10 μL/min. The sample injection was performed for 60 s for capture. The recombinant Human BDCA2 was diluted to 50 nM or 100 nM with 1× HBS-EP+ (pH 7.4), and diluted in a gradient of 1:2 to 0.39 nM. The test samples hBDCA2 at these concentration gradients were separately injected into the detection channel at a flow rate of 30 μL/min, wherein 2 samples at the concentration of 0 were used for removing background signals. The times for the antibody-antigen binding and dissociation were 180 s and 400 s, respectively. […] After subtraction of the signals from the reference channel (flow cell 1) and 0 concentration, a 1:1 binding model was selected for curve fitting, and kinetic parameters calculated.
substance,measurement,setting,value
"BIIB059: reference antibody specifically binding to BDCA2, sequence derived from U.S. Pat. No. 9,902,775B2; SEQ ID NO: 25 and 26 [reference compound]",inhibitory effect on TNF-α secretion,[1],did not have an inhibitory effect
same,ka,recombinant Human BDCA2,167000 M⁻¹ s⁻¹
same,kd,recombinant Human BDCA2,0.000179 s⁻¹
